According to patent US20070092942A1, “Ubiquitin specific enzymes of family herpesviridae” (priority 2005, published 2007):

Molecular target: T1, His6UL36^USP (Human herpesvirus 1, UniProt P10220)
T1 construct: amino acids 1 to 533 of the UL36 gene product from HHV HSV1; 6-His (pET-28a(+)) (N); 6-His (pET-28a(+)) (C); made in house; host or cells: E. coli BL21 or BL21 RIPL
Assay: Cleavage of Ub-AMC by recombinant UL36^USP
Type: biochemical, HSV-1
Conditions: ~0.1 pmol enzyme, Ub-AMC, 25° C.
Protocol: Recombinant UL36^USP and UL36^USP/C65A (˜0.1 pmol) were incubated in 125 μl kinetics buffer (50 mM HEPES, pH 7.5, 0.5 mM EDTA) supplemented with 1 mM DTT at room temperature for 10 minutes. To this was added 75 μl of Ub-AMC (250 nM in kinetics buffer) and AMC liberation was measured at 25° C. For inhibition experiments, one of UbVME, SUMO-VME, ISG15-VS, or Nedd8-VS (10 pmol) was incubated with recombinant UL36^USP (˜0.1 pmol) for 30 minutes at room temperature. To this was added 75 μl of Ub-AMC (250 nM in kinetics buffer) and AMC liberation was measured. Cleavage experiments were performed in triplicate. All fluorescence measurements were made using a Wallac Victor^3 1420 fluorescence/luminescence plate reader (Perkin Elmer) using 380 nm excitation and 460 nm emission wavelengths, with 5 second intervals between measurements. Data were exported as an Excel file and plotted as mean values of replicate experiments using Kaleidagraph v3.6 (Synergy Software).
In a typical eukaryotic cell, the presence of multiple DUBs, whose substrate pool and catalytic activities may overlap, confounds straightforward analysis of the activity of any one particular DUB. […] The proteins were expressed, purified over Ni-NTA resin and evaluated for their ability to cleave Ub C-terminal 7-amido-4-methylcoumarin (Ub-AMC) (Dang et al., 1998). […]

B1: His6UL36^USP: His-tagged recombinant 533 N-terminal amino acids of HSV-1 UL36, ubiquitin-specific cysteine protease (protein)
chain: MGGGNNTNPGGPVHKQAGSLASRAHMIAGTPPHSTMERGGDRDIVVTGARNQFAPDLEPGGSVSCMRSSLSFLSLIFDVGPRDVLSAEAIEGCLVEGGEWTRATAGPGPPRMCSIVELPNFLEYPGARGGLRCVFSRVYGEVGFFGEPAAGLLETQCPAHTFFAGPWALRPLSYTLLTIGPLGMGLFRDGDTAYLFDPHGLPEGTPAFIAKVRAGDMYPYLTYYTRDRPDVRWAGAMVFFVPSGPEPAAPADLTAAALHLYGASETYLQDEAFSERRVAITHPLRGEIAGLGEPCVGVGPREGVGGPGPHPPTAAQSPPPTRARRDDRASETSRGTAGPSAKPEAKRPNRAPDDVWAVALKGTPPTDPPSADPPSADPPSAIPPPPPSAPKTPAAEAAEEDDDDMRVLEMGVVPVGRHRARYSAGLPKRRRPTWTPPSSVEDLTSGEKTKRSAPPAKTKKKSTPKGKTPVGAAVPASVPEPVLASAPPDPAGPPVAEAGEDDGPTVPASSQALEALKTRRSPEPPGADLAQLF
modifications: left off: small tags and cut ends
notes: His-tagged recombinant 533 N-terminal amino acids of HSV-1 UL36, ubiquitin-specific cysteine protease
Turnover number for Ub-AMC cleavage: ~6 min⁻¹
